Data set [1] can be described thus: Acylase kinetics, hydrolysis of glutaryl 7-ACA (7-ACA determined at 415 nm with p-dimethylaminobenzaldehyde). It is filed as biochemical. Conditions: glutaryl-7ACA as the substrate; after HiTrap Chelating purification. As to the method:
Kinetics parameters of the mutants and HisVAC acylase were determined measuring the hydrolysis of cephalosporin C or glutaryl 7-ACA in 0.1 M phosphate buffer solution, pH 8.0 at 37° C. (then converted in units at 25° C.). The amount of 7-ACA is determined spectrophotometrically, using a standard curve, measuring the yellow intensity at 415 nm (Schiff base), resulting upon reaction with p-dimethylaminobenzaldehyde, using modified Bulasingham method (Biochem. Biophys. Acta 276, 250, 1972).
One acylase unit is the amount of enzyme (in solution or immobilized) which, under the assay conditions, produces one micromole of 7-ACA/minute.

Data set [2] is described as follows: Stability of the enzyme (pH, temperature). It is filed as physicochemical. As to the method: (§1) Purified HisVAC is stable after 120 min incubation at pH ranging from 5 to 9. Enzymatic activity increases as a function of the pH of the reaction solution, in the range 5-10, reaching the highest value at 40° C. after 30 minutes reaction.
Data set [3] can be described thus: Conversion of cephalosporin C to 7-ACA with acylase in solution (HPLC). It is filed as biochemical. Conditions: 2.27 g/l cephalosporin C, 167.2 total units. As to the method: 0.053 g cephalosporin C, dihydrate sodium salt (86% purity) is dissolved in 20 ml of 100 mM potassium phosphate buffer, pH 8 (2.27 g/l, assuming a 100% purity) and added to 6.4 ml purified acylase (167.2 total units). The mixture is incubated at 20° C., under stirring, keeping the pH at 8 by addition of diluted sodium hydroxide.

A short description of data set [4]: Dependence of enzymatic activity on pH and temperature. In kind it is biochemical. Conditions: after 30 minutes reaction. As to the method: as §1

B1: wild-type: Designed cephalosporin C acylase based on Pseudomonas N176 acylase, Phe at 270, C-terminal LEHHHHHH tag (Seq. ID #1) (protein)
chain: MTMAANTDRAVLQAALPPLSGSLPIPGLSASVRVRRDAWGIPHIKASGEADAYRALGFVHSQDRLFQMELTRRKALGRAAEWLGAEAAEADILVRRLGMEKVCRRDFEALGVEAKDMLRAYVAGVNAFLASGAPLPVEYGLLGAEPEPWEPWHSIAVMRRLGLLMGSVWFKLWRMLALPVVGAANALKLRYDDGGRDLLCIPPGAEADRLEADLATLRPAVDALLKAMGGDASDAAGGGSNNWAVAPGRTATGRPILAGDPHRVFEIPGFYAQHHLACDRFDMIGLTVPGVPGFPHFAHNGKVAYCVTHAFMDIHDLYLEQFAGEGRTARFGNDFEPVAWSRDRIAVRGGADREFDIVETRHGPVIAGDPRDGAALTLRSVQFAETDLSFDCLTRMPGASTVAQLYDATRGWGLIDHNLVAGDVAGSIGHLVRARVPSRPRENGWLPVPGWSGEHEWRGWIPHEAMPRVIDPPGGIIVTANNRVVADDHPDYLCTDCHPPYRAERIMKRLVANPAFAVDDAAAIHADTLSPHVGLLRRRLEALGARDDSAAEGLRQMLVAWDGRMDAASEVASAYNAFRRALTRLVTDRSGLEQAISHPFAAVAPGVSPQGQVWWAVPTLLRDDDAGMLKGWSWDQALSEALSVASQNLTGRSWGEEHRPRFTHPLATQFPAWAGLLNPASRPIGGDGDTVLANGLVPSAGPQATYGALSRYVFDVGNWDNSRWVVFHGASGHPASAHYADQNAPWSDCAMVPMLYSWDRIAAEAVTSQELVPALEHHHHHH
modifications: C-terminal LEHHHHHH tag; Pseudomonas
For B1, the “Specific activity of purified enzyme” value in data set [1] is reported as 6.5 U/mg proteins. In addition, the “Stability to pH” value in data set [2] (120 min incubation at pH ranging from 5 to 9) was “stable”. In addition, the “Maximum conversion to 7-ACA” value in data set [3] (100 mM potassium phosphate pH 8, 20° C., HPLC) came out at 92.8%. The “Time to maximum conversion to 7-ACA” value in data set [3] (pH 8, 20° C.) amounted to 150 min. Further, the “Temperature of highest enzymatic activity” value in data set [4] was 40 °C.

B2: A215Y: HisVAC mutant, alanine 215 replaced with Tyr (protein)
chain: MTMAANTDRAVLQAALPPLSGSLPIPGLSASVRVRRDAWGIPHIKASGEADAYRALGFVHSQDRLFQMELTRRKALGRAAEWLGAEAAEADILVRRLGMEKVCRRDFEALGVEAKDMLRAYVAGVNAFLASGAPLPVEYGLLGAEPEPWEPWHSIAVMRRLGLLMGSVWFKLWRMLALPVVGAANALKLRYDDGGRDLLCIPPGAEADRLEADLYTLRPAVDALLKAMGGDASDAAGGGSNNWAVAPGRTATGRPILAGDPHRVFEIPGFYAQHHLACDRFDMIGLTVPGVPGFPHFAHNGKVAYCVTHAFMDIHDLYLEQFAGEGRTARFGNDFEPVAWSRDRIAVRGGADREFDIVETRHGPVIAGDPRDGAALTLRSVQFAETDLSFDCLTRMPGASTVAQLYDATRGWGLIDHNLVAGDVAGSIGHLVRARVPSRPRENGWLPVPGWSGEHEWRGWIPHEAMPRVIDPPGGIIVTANNRVVADDHPDYLCTDCHPPYRAERIMKRLVANPAFAVDDAAAIHADTLSPHVGLLRRRLEALGARDDSAAEGLRQMLVAWDGRMDAASEVASAYNAFRRALTRLVTDRSGLEQAISHPFAAVAPGVSPQGQVWWAVPTLLRDDDAGMLKGWSWDQALSEALSVASQNLTGRSWGEEHRPRFTHPLATQFPAWAGLLNPASRPIGGDGDTVLANGLVPSAGPQATYGALSRYVFDVGNWDNSRWVVFHGASGHPASAHYADQNAPWSDCAMVPMLYSWDRIAAEAVTSQELVPALEHHHHHH
As for B2, in data set [2] (temperatures higher than 25° C.), the Thermal stability entry is “more stable”.

Values taken from US20050158818A1, “Cephalosporin C acylases” (ANTIBIOTICOS S.p.A., priority 2004, published 2005).
